Measured values reported in patent publication US20240279357A1 (THERINI BIO, published 2024).

T1: P2 peptide comprising SEQ ID NO: 31 (human fibrin γ377-395) (human)
T1 construct: Bought (CPC Scientific 920712); also called human P2 peptide
T1 peptide: YSMKKTTMKIIPFNRLTIG


molecular target: plasminogen-depleted human Fibrinogen (EMD/Calbiochem) (human) (UniProt P02671); experiment: ELISA on plate-coated human fibrinogen, antibody titrated, A450
Sequence (P02671 20-629 limits assumed, chain 1 of 3): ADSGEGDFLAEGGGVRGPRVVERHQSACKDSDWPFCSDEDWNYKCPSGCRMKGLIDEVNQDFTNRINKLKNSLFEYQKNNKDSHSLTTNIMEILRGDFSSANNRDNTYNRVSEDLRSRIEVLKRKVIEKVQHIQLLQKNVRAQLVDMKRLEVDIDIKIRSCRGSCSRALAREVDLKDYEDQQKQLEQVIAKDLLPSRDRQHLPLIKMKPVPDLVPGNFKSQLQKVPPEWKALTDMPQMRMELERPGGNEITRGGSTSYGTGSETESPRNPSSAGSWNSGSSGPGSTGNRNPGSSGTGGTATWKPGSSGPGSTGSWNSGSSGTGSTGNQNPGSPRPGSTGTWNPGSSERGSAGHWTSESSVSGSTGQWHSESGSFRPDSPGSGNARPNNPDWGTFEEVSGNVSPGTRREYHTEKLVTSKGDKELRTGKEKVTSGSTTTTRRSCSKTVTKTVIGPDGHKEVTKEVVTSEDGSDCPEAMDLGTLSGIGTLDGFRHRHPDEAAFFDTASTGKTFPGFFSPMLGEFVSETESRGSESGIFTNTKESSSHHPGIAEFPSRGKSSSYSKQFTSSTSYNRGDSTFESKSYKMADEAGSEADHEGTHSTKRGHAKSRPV
Sequence (P02675 31-491 limits assumed, chain 2 of 3, further chain): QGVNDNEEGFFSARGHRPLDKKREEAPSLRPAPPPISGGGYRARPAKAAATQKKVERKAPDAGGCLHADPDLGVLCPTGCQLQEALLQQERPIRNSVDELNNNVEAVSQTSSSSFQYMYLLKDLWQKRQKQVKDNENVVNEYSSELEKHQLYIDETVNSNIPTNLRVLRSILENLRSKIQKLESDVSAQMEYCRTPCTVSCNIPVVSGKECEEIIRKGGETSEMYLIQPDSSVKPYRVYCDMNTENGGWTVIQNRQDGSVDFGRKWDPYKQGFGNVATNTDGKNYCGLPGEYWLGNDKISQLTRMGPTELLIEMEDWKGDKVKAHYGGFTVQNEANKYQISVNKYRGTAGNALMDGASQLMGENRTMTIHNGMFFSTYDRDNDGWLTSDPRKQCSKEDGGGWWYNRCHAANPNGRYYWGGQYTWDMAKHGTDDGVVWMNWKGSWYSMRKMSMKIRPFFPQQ
Sequence (P02679 other isoform, or with tags, fused parts or gaps limits assumed, chain 3 of 3, further chain): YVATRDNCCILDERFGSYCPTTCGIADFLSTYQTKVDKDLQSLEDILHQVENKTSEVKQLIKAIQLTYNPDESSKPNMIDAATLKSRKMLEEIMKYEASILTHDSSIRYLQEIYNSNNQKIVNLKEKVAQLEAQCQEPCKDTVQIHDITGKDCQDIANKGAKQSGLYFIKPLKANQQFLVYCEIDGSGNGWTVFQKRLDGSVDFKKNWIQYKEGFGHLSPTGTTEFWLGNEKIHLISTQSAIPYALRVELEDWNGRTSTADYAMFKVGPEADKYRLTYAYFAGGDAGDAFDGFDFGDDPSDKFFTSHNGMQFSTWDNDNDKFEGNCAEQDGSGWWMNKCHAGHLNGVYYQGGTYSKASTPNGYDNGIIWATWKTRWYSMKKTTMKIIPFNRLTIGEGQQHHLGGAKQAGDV

Row | EC50 | Molecule
1 | 1.84 µM | mouse IgG2b isotype control (antibody)

Molecular target: T1, P2 peptide comprising SEQ ID NO: 31 …
Experiment: SPR (Biacore) single cycle, steady state affinity; IgG from HEK supernatant captured, γ377-395 peptide analyte

Row | Molecule | Kd | Relative KD
2 | VH4 C102T/VK2 (antibody, IgG1, V domains shown, IgG1, tested from HEK supernatant) VH: QVQLVQSGAEVKKPGSSVKVSCKASGYTFTSYWIHWVRQAPGQGLEWIGLIDPSDSYTNYNQKFRGRVTITVDTSTSTAYMELSSLRSEDTAVYYCASSDPTGTWGQGTTVTVSS VL: DIVMTQAAFSNPVTPGTPASISCRSSKSLLHSSGITYLSWYLQKPGQSPQLLIYQMSNLASGVPDRFSSSGSGTDFTLKISRVEAEDVGVYYCAQNLELPLTFGQGTKLEIK | 49 µM | 1.05 fold against VH4/VK2
3 | VH5 C102L/VK2 (antibody, IgG1, V domains shown, IgG1, tested from HEK supernatant; also called VH5-102L) VH: QVQLVQSGAEVKKPGSSVKVSCKASGYTFTSYWIHWVRQAPGQGLEWIGLIDPSDSYTNYNQKFRGRVTITRDTSTSTAYMELSSLRSEDTAVYYCASSDPTGLWGQGTTVTVSS VL: DIVMTQAAFSNPVTPGTPASISCRSSKSLLHSSGITYLSWYLQKPGQSPQLLIYQMSNLASGVPDRFSSSGSGTDFTLKISRVEAEDVGVYYCAQNLELPLTFGQGTKLEIK | 140 µM | 1.77 fold against VH5/VK2
4 | VH4 C102V/VK2 (antibody, IgG1, V domains shown, IgG1, tested from HEK supernatant; also called VH4-102V) VH: QVQLVQSGAEVKKPGSSVKVSCKASGYTFTSYWIHWVRQAPGQGLEWIGLIDPSDSYTNYNQKFRGRVTITVDTSTSTAYMELSSLRSEDTAVYYCASSDPTGVWGQGTTVTVSS VL: DIVMTQAAFSNPVTPGTPASISCRSSKSLLHSSGITYLSWYLQKPGQSPQLLIYQMSNLASGVPDRFSSSGSGTDFTLKISRVEAEDVGVYYCAQNLELPLTFGQGTKLEIK | 33 µM | 0.7 fold against VH4/VK2
5 | humanized anti-fibrin antibody variant VH5 C102G/VK2 (antibody, IgG1, V domains shown, IgG1, tested from HEK supernatant in the SPR assay; also called VH5 C102G/Vκ2; VH5-102G) VH: QVQLVQSGAEVKKPGSSVKVSCKASGYTFTSYWIHWVRQAPGQGLEWIGLIDPSDSYTNYNQKFRGRVTITRDTSTSTAYMELSSLRSEDTAVYYCASSDPTGGWGQGTTVTVSS VL: DIVMTQAAFSNPVTPGTPASISCRSSKSLLHSSGITYLSWYLQKPGQSPQLLIYQMSNLASGVPDRFSSSGSGTDFTLKISRVEAEDVGVYYCAQNLELPLTFGQGTKLEIK | 39 µM | 0.5 fold against VH5/VK2

The remaining lines, values ahead:

Row | Kd | Relative KD | Molecule
6 | 110 µM | 1.44 fold against VH5/VK2 | VH5 C102A/VK2 (antibody, IgG1, V domains shown, IgG1, tested from HEK supernatant) VH: QVQLVQSGAEVKKPGSSVKVSCKASGYTFTSYWIHWVRQAPGQGLEWIGLIDPSDSYTNYNQKFRGRVTITRDTSTSTAYMELSSLRSEDTAVYYCASSDPTGAWGQGTTVTVSS VL: DIVMTQAAFSNPVTPGTPASISCRSSKSLLHSSGITYLSWYLQKPGQSPQLLIYQMSNLASGVPDRFSSSGSGTDFTLKISRVEAEDVGVYYCAQNLELPLTFGQGTKLEIK
7 | 44 µM | 0.56 fold against VH5/VK2 | VH5 C102V/VK2 (antibody, IgG1, V domains shown, IgG1, tested from HEK supernatant; also called VH5-102V) VH: QVQLVQSGAEVKKPGSSVKVSCKASGYTFTSYWIHWVRQAPGQGLEWIGLIDPSDSYTNYNQKFRGRVTITRDTSTSTAYMELSSLRSEDTAVYYCASSDPTGVWGQGTTVTVSS VL: DIVMTQAAFSNPVTPGTPASISCRSSKSLLHSSGITYLSWYLQKPGQSPQLLIYQMSNLASGVPDRFSSSGSGTDFTLKISRVEAEDVGVYYCAQNLELPLTFGQGTKLEIK
8 | 110 µM | 1.33 fold against VH5/VK2 | VH5 C102S/VK2 (antibody, IgG1, V domains shown, IgG1, tested from HEK supernatant) VH: QVQLVQSGAEVKKPGSSVKVSCKASGYTFTSYWIHWVRQAPGQGLEWIGLIDPSDSYTNYNQKFRGRVTITRDTSTSTAYMELSSLRSEDTAVYYCASSDPTGSWGQGTTVTVSS VL: DIVMTQAAFSNPVTPGTPASISCRSSKSLLHSSGITYLSWYLQKPGQSPQLLIYQMSNLASGVPDRFSSSGSGTDFTLKISRVEAEDVGVYYCAQNLELPLTFGQGTKLEIK
